Measurements as given in publication PMC12871931, “The importin‐alpha superfamily engages in ethylene signaling by shuttling [sequence] INSENSITIVE 2 from the endoplasmic reticulum to the nucleus” (The Febs Journal, 2025).

How the values were obtained:
[1] = system: N. benthamiana epidermal leaf cells; assay: Confocal fluorescence microscopy, subcellular localization; format: cell-based; conditions: Cerulean fusion, transiently transformed N. benthamiana epidermal leaf cells
Description: (§1) A modified version of a previously described procedure was used for the transient transformation of N. benthamiana. An overnight culture of agrobacteria was inoculated in DYT and incubated at 28°C one day before infiltration. Bacteria were then centrifuged at 4000 g and resuspended in infiltration medium (5% (w/v) Saccharose; 0.01% (w/v) MgSO4; 0.01% (w/v) Glucose; Acetosyringone 450 μM) to an OD600 of 0.4–0.8. Resuspended bacteria were kept on ice for 1–2 h prior to infiltration. For co‐infiltration, bacteria solutions were mixed in equal quantities, and Agrobacterium strain GV3101:p19 expressing the p19 silencing inhibitor was added to each mix. Infiltration of the bacteria solution was performed with a 1 mL syringe onto the abaxial side of 3‐ to 4‐week‐old plants. Plants were kept under continuous light before microscopy analysis. For ß‐estradiol inducible constructs, plants were sprayed on the abaxial side of infiltrated leaves with an estradiol solution (ß‐estradiol 20 μM; Tween‐20 0.1% (w/v)) prior to imaging.
For fluorescence imaging, a Zeiss LSM 780 confocal microscope (40× water immersion objective, Zeiss C‐PlanApo, NA 1.2) was used. YFP was excited at 514 nm and Cerulean at 458 nm. Signal recording of each fluorophore was done within its maximum emission peak while avoiding auto‐fluorescence above 650 nm. […]

EIN2C^479–1294 = assay: In planta FLIM‐FRET, EIN2C^479–1294‐CER donor, IMPα‐YFP acceptors; format: cell-based, Arabidopsis thaliana; conditions: N. benthamiana epidermal leaf cells; for average fluorescence lifetime of the EIN2C^479‐1294‐CER donor: co‐expression, vs donor only, Kruskal‐Wallis and Dunn's test, 18–20 measurements
Description: To further investigate the interaction between members of the IMPα superfamily and EIN2 in planta, we used in vivo fluorescence lifetime microscopy and Förster's resonance energy transfer (FLIM‐FRET). Accordingly, the C‐terminal part of EIN2 (EIN2C^479–1294) was fused to the fluorescent protein Cerulean (CER), serving as a donor, and the IMPα isoforms (IMPα1‐7) were fused to YELLOW FL[…] (YFP), serving as acceptors.
as §1
Fluorescence lifetime imaging was performed using a protocol described previously. Fluorescence lifetime was measured at a Zeiss LSM 780 confocal microscope (40× water immersion objective, Zeiss C‐PlanApo, NA 1.2). For TCSPC, a PicoQuant Hydra Harp 400 (PicoQuant, Berlin, Germany) was used. Photon counting was performed with a picosecond resolution. Cerulean was excited with a 440 nm ([…], 32 MHz, PicoQuant, Berlin, Germany) pulsed polarized laser. Laser power at the objective lens was adjusted to ~2.2 μW in N. benthamiana experiments. […] Photons were detected in both donor and acceptor channels simultaneously with Tau‐SPADs (PicoQuant, Berlin, Germany). […] Internal response functions for each laser were determined by measuring the fluorescence decay of quenched Atto425 in saturated KI, using the same hardware settings as for the FRET pair of interest. Fluorescence lifetime images were acquired in the cytosol, ER, or nucleus in donor‐only samples and samples with IMPα1‐4 and IMPα7. […]
The fluorescence decays were fitted using a previously reported method with minor modifications.
The fluorescence decays of selected ROIs in the FLIM image were analyzed with the SymPhoTime FLIM analysis software (SymPhoTime 64, version 2.4; PicoQuant, Berlin, Germany). […]

ΔIBB_IMPα1 = ΔIBB_IMPα1 (Arabidopsis thaliana, UniProt Q96321); format: binding
Description: Next, we used biolayer interferometry (BLI) with an Octet K2 instrument (Fortè Bio, Dallas, USA) to substantiate and further delineate the binding interactions between the IMPα superfamily and the EIN2‐NLS motif. BLI measures slight changes in reflected light at a sensor surface upon the formation of molecular complexes. Specifically, it monitors interference patterns of white light, which are reflected from two different surfaces: an internal reference layer and a layer of biomolecules immobilized on a biosensor tip.
In these binding assays, IMPα1 lacking the IBB domain (ΔIBB_IMPα1) and IMPα4 were selected as representatives of the IMPα superfamily. Prior to their interaction studies with different EIN2 CEND‐NLS probes, both importins were biotinylated with the Biotin‐PEG4‐NHS ester Protein Labeling Kit from Jena Bioscience (Jena, Germany) and immobilized onto streptavidin‐coated biosensor tips (Fig. 5).
Curve fitting of the BLI sensorgrams was tested with different binding models. […] This model assumes analyte binding at two independent ligand sites at the IMPα immobilized on the biosensor surface. Furthermore, each ligand site binds the analyte independently and with a different rate constant. […]

Chain of ΔIBB_IMPα1 (Q96321 whole entry, stated change not applied): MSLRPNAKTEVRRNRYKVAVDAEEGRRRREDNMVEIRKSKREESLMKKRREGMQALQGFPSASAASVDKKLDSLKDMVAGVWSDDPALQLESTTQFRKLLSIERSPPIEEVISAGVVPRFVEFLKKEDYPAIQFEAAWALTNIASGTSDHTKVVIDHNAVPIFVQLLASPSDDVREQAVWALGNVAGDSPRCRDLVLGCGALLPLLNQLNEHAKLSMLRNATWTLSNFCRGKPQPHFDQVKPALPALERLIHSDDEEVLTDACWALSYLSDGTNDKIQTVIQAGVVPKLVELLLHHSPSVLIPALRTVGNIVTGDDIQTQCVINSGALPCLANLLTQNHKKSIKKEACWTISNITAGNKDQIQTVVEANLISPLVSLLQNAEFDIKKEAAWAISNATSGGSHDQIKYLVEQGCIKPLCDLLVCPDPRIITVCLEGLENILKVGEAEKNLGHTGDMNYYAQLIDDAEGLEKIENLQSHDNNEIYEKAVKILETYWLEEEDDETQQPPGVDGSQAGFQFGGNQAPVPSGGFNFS

B1: EIN2C^479–1294: C‐terminal part of EIN2 fused to Cerulean (CER), FRET donor (protein)
chain: NALSYPSVQEEEIERTETRRNEDESIVRLESRVKDQLDTTSVTSSVYDLPENILMTDQEIRSSPPEERELDVKYSTSQVSSLKEDSDVKEQSVLQSTVVNEVSDKDLIVETKMAKIEPMSPVEKIVSMENNSKFIEKDVEGVSWETEEATKAAPTSNFTVGSDGPPSFRSLSGEGGSGTGSLSRLQGLGRAARRHLSAILDEFWGHLYDFHGQLVAEARAKKLDQLFGTDQKSASSMKADSFGKDISSGYCMSPTAKGMDSQMTSSLYDSLKQQRTPGSIDSLYGLQRGSSPSPLVNRMQMLGAYGNTTNNNNAYELSERRYSSLRAPSSSEGWEHQQPATVHGYQMKSYVDNLAKERLEALQSRGEIPTSRSMALGTLSYTQQLALALKQKSQNGLTPGPAPGFENFAGSRSISRQSERSYYGVPSSGNTDTVGAAVANEKKYSSMPDISGLSMSARNMHLPNNKSGYWDPSSGGGGYGASYGRLSNESSLYSNLGSRVGVPSTYDDISQSRGGYRDAYSLPQSATTGTGSLWSRQPFEQFGVAERNGAVGEELRNRSNPINIDNNASSNVDAEAKLLQSFRHCILKLIKLEGSEWLFGQSDGVDEELIDRVAAREKFIYEAEAREINQVGHMGEPLISSVPNCGDGCVWRADLIVSFGVWCIHRVLDLSLMESRPELWGKYTYVLNRLQGVIDPAFSKLRTPMTPCFCLQIPASHQRASPTSANGMLPPAAKPAKGKCTTAVTLLDLIKDVEMAISCRKGRTGTAAGDVAFPKGKENLASVLKRYKRRLSNKPVGMNQDGPGSRKNVTAYGSLG
modifications: left off: Cerulean, end not stated, kept
notes: C‐terminal part of EIN2 fused to Cerulean (CER), FRET donor
[1]
  subcellular localization: localized in the nucleus, ER, and cytoplasm

B2: IMPα6‐YFP: A. thaliana IMPα6 fused to YFP, FRET acceptor (protein)
chain: MSYKPSAKTEVRRNRYKVSVDADEGRRRREDNMVEIRKNKREENLQKKRREGFNPSMASQPGQDFSSSLPTETRLENIQQMIAGVMSEDRDLQLEATASFRRLLSIERNPPINEVVQSGVVPHIVQFLSRDDFTQLQFEAAWALTNIASGTSENTRVIIDSGAVPLFVKLLSSASEEVREQAVWALGNVAGDSPKCRDHVLSCEAMMSLLAQFHEHSKLSMLRNATWTLSNFCRGKPQPAFEQTKAALPALERLLHSTDEEVLTDASWALSYLSDGTNEKIQTVIDAGVIPRLVQLLAHPSPSVLIPALRTIGNIVTGDDIQTQAVISSQALPGLLNLLKNTYKKSIKKEACWTISNITAGNTSQIQEVFQAGIIRPLINLLEIGEFEIKKEAVWAISNATSGGNHDQIKFLVSQGCIRPLCDLLPCPDPRVVTVTLEGLENILKVGEAEKNLGNTGNDNLYAQMIEDADGLDKIENLQSHDNNEIYEKAVKILESYWAADDEEEDIGGVDAPENVQSSGFQFGNQSGNAPTGGFNFG
modifications: left off: YFP, end not stated, kept
notes: A. thaliana IMPα6 fused to YFP, FRET acceptor
EIN2C^479–1294
  average fluorescence lifetime of the EIN2C^479‐1294‐CER donor: significant reduction

B3: IMPα7‐YFP: A. thaliana IMPα7 fused to YFP, FRET acceptor (protein)
chain: MKGGETMSVRRSGYKAVVDGVGGRRRREDDMVEIRKAKREESLLKKRREALPHSPSADSLDQKLISCIWSDERDLLIEATTQIRTLLCGEMFNVRVEEVIQAGLVPRFVEFLTWDDSPQLQFEAAWALTNIASGTSENTEVVIDHGAVAILVRLLNSPYDVVREQVVWALGNISGDSPRCRDIVLGHAALPSLLLQLNHGAKLSMLVNAAWTLSNLCRGKPQPPFDQVSAALPALAQLIRLDDKELLAYTCWALVYLSDGSNEKIQAVIEANVCARLIGLSIHRSPSVITPALRTIGNIVTGNDSQTQHIIDLQALPCLVNLLRGSYNKTIRKEACWTVSNITAGCQSQIQAVFDADICPALVNLLQNSEGDVKKEAAWAICNAIAGGSYKQIMFLVKQECIKPLCDLLTCSDTQLVMVCLEALKKILKVGEVFSSRHAEGIYQCPQTNVNPHAQLIEEAEGLEKIEGLQSHENNDIYETAVKILETYWMEEEEEEDQEQQDMIYFPVDNFANMPTSSGTLSEMHCGP
modifications: left off: YFP, end not stated, kept
notes: A. thaliana IMPα7 fused to YFP, FRET acceptor
EIN2C^479–1294
  average fluorescence lifetime of the EIN2C^479‐1294‐CER donor: significant reduction

B4: IMPα5: A. thaliana IMPα5 fused to YFP, FRET acceptor (protein)
chain: MSLRPSTKTEIRRIRYKVSVDAEEGRRRREDFLVEIRKSKRNENLMKKRRVKVLPPDYKLISNDPFESLLEIANMITGVFSDDPSLQLEYTTRFRVVLSFDRSPPTDNVIKSGVVPRFVEFLKKDDNPKLQFEAAWALTNIASGASEHTKVVIDHGVVPLFVQLLASPDDDVREQAIWGLGNVAGDSIQCRDFVLNSGAFIPLLHQLNNHATLSILRNATWTLSNFFRGKPSPPFDLVKHVLPVLKRLVYSDDEQVLIDACWALSNLSDASNENIQSVIEAGVVPRLVELLQHASPVVLVPALRCIGNIVSGNSQQTHCVINCGVLPVLADLLTQNHMRGIRREACWTISNITAGLEEQIQSVIDANLIPSLVNLAQHAEFDIKKEAIWAISNASVGGSPNQIKYLVEQNCIKALCDILVCPDLRIILVSLGGLEMILIAGEVDKNLRDVNCYSQMIEDAEGLEKIENLQHHGNNEIYEKAVKILQTYGLVEEDGRLVEEEDEGGDGCSHPEFQFDFSR
modifications: left off: His6, C-terminal, state not stated
notes: A. thaliana IMPα5 fused to YFP, FRET acceptor
EIN2C^479–1294
  average fluorescence lifetime of the EIN2C^479‐1294‐CER donor: only slightly, but not significantly reduced
EIN2C^479–1294; mean, EIN2C^479–1294‐CER donor / IMPα‐YFP acceptor
  FRET efficiency: 1%

B5: GB1‐AtEIN2C^1215–1281: CEND construct containing a GB1‐tag to enhance solubility, produced recombinantly in E. coli (protein)
chain: {GB1 tag}-KGKCTTAVTLLDLIKDVEMAISCRKGRTGTAAGDVAFPKGKENLASVLKRYKRRLSNKPVGMNQDGP
modifications: not fully specified
notes: CEND construct containing a GB1‐tag to enhance solubility, produced recombinantly in E. coli
ΔIBB_IMPα1; BLI dose response, ΔIBB_IMPα1
  Hill coefficient: 0.94 ± 0.06
ΔIBB_IMPα1; BLI, ΔIBB_IMPα1 biotinylated on streptavidin biosensor (15 μM in 100 mM Tris pH 7.0, 100 mM KCl, 0.01% Tween 20), room temperature, association 300 s, dissociation 300 s, 1:2 heterogeneous ligand model, n = 3, read-out: K d + SD
  Kd: 8.8 ± 1.1 µM
